Target: MdtJ-His6 (Lawsonia intracellularis MdtJ, orphan, Cys-less)
Assay: size exclusion chromatography with densitometry of blot fractions
Conditions: parent: est. 36; read off a plot

In the case of “FtsH-His6 (E. coli FtsH, wild type) (from UniProt P0AAI3) S2K; K6A; N7L; Q23L”, the response was 11%.
